Laboratory results as given in US20030003461, “Truncation selex method” (Gilead Sciences, Inc., published 2003).

Biological target: VEGF (Homo sapiens, UniProt P15692-4 P15692-4:27-191)
Test: filter; phenotype 5: non-binding with or without 3' fixed sequence
Settings: tags: recombinant human, R&D Systems; chain copies: 2

Sequence of VEGF (P15692 other isoform, or with tags, fused parts or gaps): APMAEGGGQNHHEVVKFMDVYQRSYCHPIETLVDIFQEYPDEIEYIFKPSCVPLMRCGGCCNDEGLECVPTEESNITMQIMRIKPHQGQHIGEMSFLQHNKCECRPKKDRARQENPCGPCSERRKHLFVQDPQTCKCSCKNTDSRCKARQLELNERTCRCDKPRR

B1: T1-11 (ssRNA)
RNA: GGGAGGAAGAAUUGGAAACAUUGCUCGUCAGACGACUCGCCCGA
modifications: 2'-F pyrimidines
  binding result: no binding
